PMC6458997, “Deciphering the Molecular Mechanism Underpinning Phage Arbitrium Communication Systems” (Molecular Cell, 2019)
Entries after “also recorded” stand apart in the source; their conditions may differ.

B1: SPbeta AimR: full-length AimR (residues 1-386) from the SPbeta phage, transcription factor and arbitrium receptor (protein)
chain: MELIRIAMKKDLENDNSLMNKWATVAGLKNPNPLYDFLNHDGKTFNEFSSIVNIVKSQYPDREYELMKDYCLNLDVKTKAARSALEYADANMFFEIEDVLIDSMISCSNMKSKEYGKVYKIHRELSNSVITEFEAVKRLGKLNIKTPEMNSFSRLLLLYHYLSTGNFSPMAQLIKQIDLSEISENMYIRNTYQTRVHVLMSNIKLNENSLEECREYSKKALESTNILRFQVFSYLTIGNSLLFSNYELAQENFLKGLSISVQNENYNMIFQQALCFLNNVWRKENKWINFESDSIMDLQEQAHCFINFNENSKAKEVLDKLDLLVHNDNELAMHYYLKGRLEQNKACFYSSIEYFKKSNDKFLIRLPLLELQKMGENQKLLELLLL
modifications: left off: His6, N-terminal, cleaved
notes: full-length AimR (residues 1-386) from the SPbeta phage, transcription factor and arbitrium receptor
B2: AimR^D360A: SPbeta AimR residue D360 mutated to Ala (protein)
chain: MELIRIAMKKDLENDNSLMNKWATVAGLKNPNPLYDFLNHDGKTFNEFSSIVNIVKSQYPDREYELMKDYCLNLDVKTKAARSALEYADANMFFEIEDVLIDSMISCSNMKSKEYGKVYKIHRELSNSVITEFEAVKRLGKLNIKTPEMNSFSRLLLLYHYLSTGNFSPMAQLIKQIDLSEISENMYIRNTYQTRVHVLMSNIKLNENSLEECREYSKKALESTNILRFQVFSYLTIGNSLLFSNYELAQENFLKGLSISVQNENYNMIFQQALCFLNNVWRKENKWINFESDSIMDLQEQAHCFINFNENSKAKEVLDKLDLLVHNDNELAMHYYLKGRLEQNKACFYSSIEYFKKSNAKFLIRLPLLELQKMGENQKLLELLLL
B3: AimR^N202A: SPbeta AimR residue N202 mutated to Ala (protein)
chain: MELIRIAMKKDLENDNSLMNKWATVAGLKNPNPLYDFLNHDGKTFNEFSSIVNIVKSQYPDREYELMKDYCLNLDVKTKAARSALEYADANMFFEIEDVLIDSMISCSNMKSKEYGKVYKIHRELSNSVITEFEAVKRLGKLNIKTPEMNSFSRLLLLYHYLSTGNFSPMAQLIKQIDLSEISENMYIRNTYQTRVHVLMSAIKLNENSLEECREYSKKALESTNILRFQVFSYLTIGNSLLFSNYELAQENFLKGLSISVQNENYNMIFQQALCFLNNVWRKENKWINFESDSIMDLQEQAHCFINFNENSKAKEVLDKLDLLVHNDNELAMHYYLKGRLEQNKACFYSSIEYFKKSNDKFLIRLPLLELQKMGENQKLLELLLL
B4: AimR^ΔC-ter: AimR mutant lacking the TPR^C-ter subdomain, stop codon at position 294 (protein)
chain: MELIRIAMKKDLENDNSLMNKWATVAGLKNPNPLYDFLNHDGKTFNEFSSIVNIVKSQYPDREYELMKDYCLNLDVKTKAARSALEYADANMFFEIEDVLIDSMISCSNMKSKEYGKVYKIHRELSNSVITEFEAVKRLGKLNIKTPEMNSFSRLLLLYHYLSTGNFSPMAQLIKQIDLSEISENMYIRNTYQTRVHVLMSNIKLNENSLEECREYSKKALESTNILRFQVFSYLTIGNSLLFSNYELAQENFLKGLSISVQNENYNMIFQQALCFLNNVWRKENKWINFESD

What was measured:
[1] = system: SPbeta AimR operator; settings: pH 7.5
Protocol: AimR binding to its operator and the inhibition induced by the arbitrium peptides were analyzed by native polyacrylamide and agarose gel electrophoresis. […] Double strand DNA primer probes were purchased from Macrogen (Table S1 and Figure 3A). Purified PCR product or purchased probes (0.4μM) and AimR (4μM) protein were mixed in EMSA buffer (50 mM HEPES pH 7.5, 5 mM MgCl2, 75 mM NaCl and 0.5 mM EDTA). The samples were incubated for 10 min at room temperature. 8% polyacrylamide gels were electrophoresed in Tris-Borate-EDTA (TBE) buffer at 100V for one hour, followed by loading of the samples. Electrophoresis was then performed in TBE buffer at 4°C for about 150 min at 100V. Agarose gels (0.8%–1.2%) were run in TAE buffer at room temperature for about 100 min at 80V. Gels were stained with RedSafe (Intron Biotechnology).

[2] = system: spacer-length-variant operators; assay: EMSA and titration, AimR binding to spacer-length-variant operators; set-up: species or system Bacillus subtilis SPbeta phage; settings: apo AimR; spacers 12 to 35 bp; titration with 0.125 to 1 μg AimR
From the text: (§1) Gels were stained with RedSafe (Intron Biotechnology).

[3] = system: intergenic region between yopL and yopM; assay: Nuclease protection assay (footprinting); type: binding, Bacillus subtilis SPbeta phage; settings: 0.3 μM AimR SPbeta, 10 min room temperature; DNase I 10^−4 mg/mL, 1 min at 37°C; capillary electrophoresis
[4] = SEC-MALS, oligomeric state of AimR proteins; type: physicochemical; settings: 5 mg/mL, Superdex 200 HR 10/300, 25 mM Tris pH 8, 250 mM NaCl
Protocol: SEC-MALS experiments were performed using an AKTA pure system (GE Heralthcare) coupled to a Wyatt DAWN HELEOS-II MALS instrument and a Wyatt Optilab rEX differential refractometer (Wyatt). 50 μL of the protein samples were injected at a concentration of 5 mg/mL on a Superdex 200 HR 10/300 (GE Heralthcare) column equilibrated in 25 mM Tris pH 8, 250 mM NaCl. When the effect of the peptide in the oligomeric state was tested, 1 mM peptide was added to the injected sample and the running buffer was supplemented with peptide at a final concentration of 1 μM. The Astra 7.1.2 software from the manufacturer was used for acquisition and analysis of the data.

[5] = system: putative AimR operators found in SPbeta genome; assay: EMSA, AimR binding to other SPbeta operators with longer spacers; set-up: species or system Bacillus subtilis SPbeta phage; settings: spacers of 27 and 28 bp
From the text: as §1

[6] = system: SPbeta AimR D360A; assay: Thermal shift assay, mutant AimR D360A; type: binding, Bacillus subtilis SPbeta phage; settings: AimR^D360A versus WT AimR
Protocol: The thermal shift assay was conducted in a 7500 Fast Real time PCR System (Applied Biosystems). Samples of 20 μL containing 5 × Sypro Orange (Sigma-Aldrich) and 20 μM of protein in a 20 mM Tris pH 8 and 250 mM NaCl buffer were loaded in 96-well PCR plates. To calculate the apparent Kd peptide concentrations from 0 to 2 μM were added to the mixture. Samples were heated from 20 to 85°C in steps of one degree. Fluorescent intensity was plotted versus temperature and integrated with GraphPad Prism software using a Boltzmann model to calculate melting temperatures.

[7] = Size-exclusion chromatography of AimR^ΔC-ter; type: physicochemical; settings: stop codon at position 294

Row | Molecule | binding to SPbeta operator or 359 bp fragment [1] | affinity / capacity to bind spacer-length-variant operators [2] | length of sequence protected from DNase I degradation [3] [nt] | oligomeric state in solution [4] | binding to other SPbeta operators [5] | decrease in the melting temperature with respect to the WT AimR [6] [°C] | oligomeric state in solution (size-exclusion chromatography) [7]
1 | B1 | binds to a 359 bp fragment | after eliminating 2 bp AimR dramatically loses its capacity to bind the operator; also recorded: can recognize operators in which the spacer has been increased even more than 6 bp | 37 | dimeric organization | AimR binding to other SPbeta operators with longer spacers |  | 
2 | B2 |  |  |  | dimeric in solution |  | 5.3 | 
3 | B3 | able to bind DNA |  |  | dimeric in solution |  |  | 
4 | B4 |  |  |  |  |  |  | monomeric in solution
